T1: mouse PD-1 antigen protein of the affinity-maturation screen (mouse, UniProt Q02242 25-167, limits assumed, biotinylated)
T1 sequence (looked up): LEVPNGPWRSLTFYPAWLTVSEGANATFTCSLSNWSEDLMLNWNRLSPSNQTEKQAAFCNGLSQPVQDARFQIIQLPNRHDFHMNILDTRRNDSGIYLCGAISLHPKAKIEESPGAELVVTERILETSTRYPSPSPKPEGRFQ

B1: 2B1 (antibody, V domains shown)
VH: QVQLVQSGAEVKKPGSSVKVSCKASGFTFTTYYISWVRQAPGQGLEYLGYINMGSGGTNYNEKFKGRVTITADKSTSTAYMELSSLRSEDTAVYYCAIIGYFDYWGQGTMVTVSS
VL: DVVMTQSPLSLPVTLGQPASISCRSSQSLLDSDGNTYLYWFQQRPGQSPRRLIYLVSTLGSGVPDRFSGSGSGTDFTLKISRVEAEDVGVYYCMQLTHWPYTFGQGTKLEIK
B2: 5C4 (antibody, V domains shown)
VH: B1 VH with I99L
VL: B1 VL with N35Q, W99E
B3: 1G10 (antibody, V domains shown)
VH: B1 VH with I99L
VL: B1 VL with N35A
B4: A6W (antibody, V domains shown)
VH: B1 VH with I99L
VL: B1 VL
B5: 8C10 (antibody, V domains shown)
VH: B1 VH
VL: B1 VL with N35Q, W99E, P100N
B6: L1I (antibody, V domains shown)
VH: B1 VH
VL: B1 VL with W99A
notes: also called L11

Substitutions are numbered along the chain they refer to. Numbers in names are those of the source.

human PD-1 antigen protein of the affinity-maturation screen, sequence (Q15116 25-167 limits assumed): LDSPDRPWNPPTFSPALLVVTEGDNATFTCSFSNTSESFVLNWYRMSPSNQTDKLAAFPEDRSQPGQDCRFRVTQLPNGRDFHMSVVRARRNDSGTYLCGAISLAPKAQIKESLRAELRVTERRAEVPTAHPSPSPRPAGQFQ

One test has as its target T1, mouse PD-1 antigen protein of the …. Briefly: capture ELISA, second-round affinity-maturation screen (scFv format likely); unit not given.
Consider B1, for which the Bmax turned out to be 0.339.

Molecule B2 yielded a Bmax of 0.164.

As to B3, the Bmax is 0.3.

Regarding B4, the Bmax stood at 0.174.

Molecule B5 registered a Bmax of 0.437.

A further test addresses human PD-1 antigen protein of the affinity-maturation screen (human, UniProt Q15116 25-167, limits assumed, biotinylated). The description is as above.
B1 returned a Bmax of 3.02.

Turning to B2, the Bmax worked out at 2.65.

Molecule B6 had a Bmax of 1.05.

With B3, the Bmax is 2.6.

B4 registered a Bmax of 2.57.

Molecule B5 had a Bmax of 2.31.

The next test has as its target cynomolgus PD-1 antigen protein of the affinity-maturation screen (cynomolgus). The test is described as above.
Consider B1, for which the Bmax was determined as 1.21.

B2 returned a Bmax of 0.258.

For B6, the Bmax turned out to be 0.0517.

In turn, B3 came in with a Bmax of 1.08.

B4 showed a Bmax of 0.0787.

The molecule B5 showed a Bmax of 1.11.

Values taken from patent US20230014722A1 (CSTONE PHARMACEUTICALS, published 2023).
